From publication PMC10632514 (Nature Communications, 2023)

T1: MPER peptide (wild type, for epitope mapping) (HIV-1 HXB2)
T1 construct: also called wild-type MPER (WT); source: synthetic peptide
T1 chain: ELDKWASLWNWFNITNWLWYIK

B1: rmAb 460 IgG1 (antibody, V domains shown)
VH: EVQLQQSGAELVKPGASVKLSCTASGFNIKDTYMHWVKQRPEQGLEWIGRIDPANGNTKYDPKFQGKATITADTSSNTAYLQLSSLTSEDTAVYFCTRSRGYFGNYYFDYWGQGTTLTVSS
VL: QIVLTQSPAVMSASPGERVTMTCSASSSVSYMYWYQQKPRSSPKPWIYLTSNLASGVPARFSGSGSGTSYSLTISSMEAEDAATYYCQQWSSIPLTFGAGTKLELK
B2: rmAb 235 IgG1 (antibody, V domains shown)
VH: QVQLQQSGTDLVRPGTSVKVSCKASGYAFTTYFIEWVKQRPGQGLEWIGVINPGSGIPNYNEMFKGKATLTADKSSSTAYLHLSSLTSDDSAVYFCARAPYYYGSSYYYFDVWGAGTTVTVSS
VL: DIVMSQSPSSLAVSVGEKVTMSCKSSQSLLYSSNQKNYLAWYQQKPGQSPKLLIYWASTRDSGVPDRFTGSGSGTDFTLTISSVKAEDLAVYCCQQYYNYPFTFGAGTKLEIK

Molecular target: T1, MPER peptide (wild type, for epitope …)
Assay: SPR
Conditions: both partners purified

| Binder | binding result |
| --- | --- |
| B1 | binds |
| B2 | binds |
